Test results taken from paper doi:10.1101/2023.11.20.567881.

Tests used:
[1] = target: yeast surface-displayed DARPin 3G146 variant 2-G4 (G150S); experiment: flow cytometry on cells
[2] = target: yeast surface-displayed DARPin 3G146 variant 2-H3 (G237S); experiment: flow cytometry on cells

fold improvement of apparent binding affinity over 3G146 [1]: 8 fold
fold improvement of apparent binding affinity over 3G146 [2]: 28 fold
Substance: EGFP-His6 (from UniProt P42212 1-238) (natural protein)
